Experimental data: patent US10370642B2, “Hematopoietic progenitor cell populations having affinity for E-selectin / L-selectin” (priority 2000, dated 2019)

T1: L-selectin (Rattus norvegicus, UniProt P30836)
T1 construct: L-selectin naturally expressed on leukocytes; endogenous in cells; host or cells: lymphocytes (rat thoracic duct lymphocytes; human PBMC also prepared)
T1 sequence (P30836 39-372): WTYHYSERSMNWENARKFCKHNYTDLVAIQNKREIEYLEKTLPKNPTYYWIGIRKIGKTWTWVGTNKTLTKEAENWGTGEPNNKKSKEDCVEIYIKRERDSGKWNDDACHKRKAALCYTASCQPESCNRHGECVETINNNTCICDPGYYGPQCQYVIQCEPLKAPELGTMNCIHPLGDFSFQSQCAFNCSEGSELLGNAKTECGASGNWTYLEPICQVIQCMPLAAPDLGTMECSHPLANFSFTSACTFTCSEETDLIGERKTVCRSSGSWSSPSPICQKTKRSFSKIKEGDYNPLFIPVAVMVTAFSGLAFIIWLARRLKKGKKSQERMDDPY

T2: E-selectin (Homo sapiens, UniProt P16581)
T2 construct: stably transfected with full-length cDNA encoding human E-selectin; expressed in transfected cells
T2 sequence (P16581 22-610): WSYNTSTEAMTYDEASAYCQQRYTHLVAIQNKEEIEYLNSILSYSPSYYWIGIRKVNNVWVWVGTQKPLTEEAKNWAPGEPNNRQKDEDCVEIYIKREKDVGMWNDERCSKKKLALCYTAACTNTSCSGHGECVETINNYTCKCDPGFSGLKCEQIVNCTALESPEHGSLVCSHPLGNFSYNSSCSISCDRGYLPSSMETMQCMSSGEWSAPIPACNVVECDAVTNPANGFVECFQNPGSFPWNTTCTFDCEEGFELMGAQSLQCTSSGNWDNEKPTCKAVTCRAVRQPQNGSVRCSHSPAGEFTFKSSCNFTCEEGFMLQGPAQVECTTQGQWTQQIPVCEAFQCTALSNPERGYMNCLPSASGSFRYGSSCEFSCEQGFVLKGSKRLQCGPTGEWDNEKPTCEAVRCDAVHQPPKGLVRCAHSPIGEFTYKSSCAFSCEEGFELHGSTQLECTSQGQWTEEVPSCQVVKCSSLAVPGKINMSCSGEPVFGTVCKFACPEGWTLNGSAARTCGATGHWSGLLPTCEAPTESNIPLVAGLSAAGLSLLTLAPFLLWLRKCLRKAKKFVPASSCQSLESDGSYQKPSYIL

B1: L-selectin (Molecular Control): L-selectin (LAM 1-3) immunoprecipitated from KG1a cells, negative molecular control (protein)
chain: WTYHYSEKPMNWQRARRFCRDNYTDLVAIQNKAEIEYLEKTLPFSRSYYWIGIRKIGGIWTWVGTNKSLTEEAENWGDGEPNNKKNKEDCVEIYIKRNKDAGKWNDDACHKLKAALCYTASCQPWSCSGHGECVEIINNYTCNCDVGYYGPQCQFVIQCEPLEAPELGTMDCTHPLGNFSFSSQCAFSCSEGTNLTGIEETTCGPFGNWSSPEPTCQVIQCEPLSAPDLGIMNCSHPLASFSFTSACTFICSEGTELIGKKKTICESSGIWSNPSPICQKLDKSFSMIKEGDYNPLFIPVAVMVTAFSGLAFIIWLARRLKKGKKSKRSMNDPY
B2: CD34 (Molecular Control): CD34 (QBend-10) immunoprecipitated from KG1a cells, negative molecular control (protein)
chain: SLDNNGTATPELPTQGTFSNVSTNVSYQETTTPSTLGSTSLHPVSQHGNEATTNITETTVKFTSTSVITSVYGNTNSSVQSQTSVISTVFTTPANVSTPETTLKPSLSPGNVSDLSTTSTSLATSPTKPYTSSSPILSDIKAEIKCSGIREVKLTQGICLEQNKTSSCAEFKKDRGEGLARVLCGEEQADADAGAQVCSLLLAQSEVRPQCLLLVLANRTEISSKLQLMKKHQSDLKKLGILDFTEQDVASHQSYSQKTLIALVTSGALLAVLGITGYFLMNRRSWSPTGERLGEDPYYTENGGGQGYSSGPGTSPEAQGKASVNRGAQENGTGQATSRNGHSARQHVVADTEL
B3: HL60 PSGL-1: PSGL-1 immunoprecipitated from HL60 cells (protein)
chain: QATEYEYLDYDFLPETEPPEMLRNSTDTTPLTGPGTPESTTVEPAARRSTGLDAGGAVTELTTELANMGNLSTDSAAMEIQTTQPAATEAQTTQPVPTEAQTTPLAATEAQTTRLTATEAQTTPLAATEAQTTPPAATEAQTTQPTGLEAQTTAPAAMEAQTTAPAAMEAQTTPPAAMEAQTTQTTAMEAQTTAPEATEAQTTQPTATEAQTTPLAAMEALSTEPSATEALSMEPTTKRGLFIPFSVSSVTHKGIPMAASNLSVNYPVGAPDHISVKQCLLAILILALVATIFFVCTVVLAVRLSRKGHMYPVRNYSPTEMVCISSLLPDGGEGPSATANGGLSKAKSPGLTPEPREDREGDDLTLHSFLP
B4: AML (M1) PSGL-1: PSGL-1 immunoprecipitated from AML (M1) blasts (protein)
chain: B3 chain

Columns and labels:
[1] = molecular target: T1, L-selectin; test: Stamper-Woodruff assay, lymphocyte adherence to immunoprecipitated CD44 and PSGL-1; format: cell-based; conditions: 80 rpm; for Mean Number of Bound Lymphocytes: 0.75 μg/spot (PSGL-1 1 μg/spot), 4° C., 100× mag.
Method: These protein spots were then fixed in 3% glutaraldehyde, unreactive aldehyde groups were blocked in 0.2M lysine and slides were kept in RPMI-1640 without NaBicarbonate/2% FBS until ready for testing. Lymphocytes (10^7/ml RPMI-1640 without NaBicarbonate/5% FBS) were overlayed onto these fixed immunoprecipitates and incubated on an orbital shaker at 80 rpm for 30 min. at 4° C. The number of adherent lymphocytes was quantified by light microscopy using an ocular grid under 100× magnification (a minimum of 5 fields/slide, 2 slides/experiment, and 3 separate experiments). Data were presented as the mean number of bound lymphocytes±standard deviation. KG1a CD34 and L-selectin control immunoprecipitates were also tested in this manner. To verify the dependence for sialic acid, glutaraldehyde-fixed spots were treated with Vibrio cholerae neuraminidase (0.1 U/ml RPMI-1640 without NaBicarbonate/2% FBS for lhr at 37° C.).
Immunoaffinity purified material (0.75-3 μg/spot) was spotted onto glass slides for analyses in the Stamper-Woodruff assay (See below for assay description). For autoradiographic analysis of immunoprecipitated [^35S]-methionine-radiolabeled CD44 and PSGL-1, immunoprecipitates were spotted onto glass slides, allowed to dry and exposed Kodak BioMax-MR film for 12 h at −80° C. Densitometric analysis (optical density) of the autoradiograms was performed with a Hewlett-Packard Scanj et 5200C scanner and NIH Image processing and analysis program.

[2] = molecular target: T2, E-selectin; test: CHO-E cell rolling on immobilized immunoprecipitates, parallel-plate flow chamber; format: cell-based; conditions: immunoprecipitates on plastic; 2.8 dynes/cm^2
Method: CD44 was immunoprecipitated from untreated cell lysates or from cell lysates treated with N-glycosidase-F (0.8 U/ml) Vibrio cholerae neuraminidase (0.1 U/ml) or a-L-fucosidase (80 mU/ml), and PSGL-1 was immunoprecipitated from untreated cell lysates as previously described (Sackstein and Dimitroff, 2000; Dimitroff et al., 2000).
CD44 or PSGL-1 immunoprecipitates were spotted onto plastic petri dishes, fixed in 3% glutaraldehyde and incubated in 0.2M lysine to block unreactive aldehyde groups, and then non-specific binding was prevented by incubating in 100% FBS for 1 hr at RT. Fixed spots were also treated with Vibrio cholerae neuraminidase (0.1 U/ml assay medium), which was overlaid onto the spots and incubated at 37° C. for 1 hr. […] The flow rate was then increased to achieve a shear stress of 2.8 dynes/cm^2. The frequency of cells rolling per 100× magnification field was determined, and data were expressed as the mean±standard deviation of 8 fields visualized from a minimum of 3 experiments.

[3] = system: HL60 cells; test: CHO-E cell rolling on glutaraldehyde-fixed HL60 monolayers; format: cell-based, human; conditions: 2.8 dynes/cm^2; EDTA 5 mM; HECA 452 50 μg/ml
Description: (§1) E-selectin-mediated adhesive interactions, under defined shear stress, were examined between hematopoietic cell monolayers and suspensions of CHO-E (Chinese hamster ovary cells stably transfected with full-length cDNA encoding human E-selectin) in flow. CHO-E and empty vector constructs (CHO-Mock) were maintained in MEM 10% FBS/1% Penicillin/Streptomycin (Life Technologies, Inc.) and HAM's F-12 (Cellgro, Inc.)/5% FCS/1% Penicillin/Streptomycin, respectively. CHO-E cell tethering and rolling on hematopoietic cell monolayers was visualized by video microscopy in real time using the parallel-plate flow chamber. […] To prepare hematopoietic cell monolayers>90% confluent, suspensions of cells (KG1a, HL60, K562, or RPMI 8402) at 2×10^6/ml RPMI1640 without NaBicarbonate/2% FBS were cytocentrifuged in […] plates at 5×10^6/well and then fixed in 3% glutaraldehyde. Reactive aldehyde groups were blocked in 0.2M lysine, and plated cells were suspended H/H/Ca++. […] The number of CHO-E/Mock cell rolling on each monolayer was measured in one frame of five independent fields under 10× magnification from multiple experiments. A minimum of 3 experiments was performed and results were expressed as the mean±standard deviation.

[4] = system: KG1a cells; test: CHO-E cell rolling on glutaraldehyde-fixed KG1a monolayers; format: cell-based, human; conditions: 2.8 dynes/cm^2; EDTA 5 mM; HECA 452 50 μg/ml
Description: as §1

[5] = molecular target: T2, E-selectin; test: Blot rolling assay with CHO-E cells; format: cell-based; conditions: immunoprecipitated CD44 on Western blot; 3.8 dynes/cm^2
Method: The blot rolling assay was performed as previously described (Dimitroff et al., 2000). Briefly, CHO-E, CHO—P or CHO-Mock transfectants were isolated as described above, washed twice in HBSS and suspended at 10^7/ml in HBSS/10 mM HEPES/2mMCaCl2 (H/H/Ca++)/10% glycerol. Western blots of HPC membrane preparations stained with HECA-452 were rendered transparent by incubating them in H/H/Ca++/10% glycerol. The blots were then placed in the parallel-plate flow chamber, and CHO transfectants (2×10^6/ml) were perfused into the chamber. After allowing the cells to come in contact with the blotting membrane, the flow rate was adjusted to exert a shear stress of 3.8 dynes/cm^2. The viscosity of 10% glycerol adhesion assay medium was considered in the calculation of shear stress values. The number of cells rolling on and between each immunostained banding region was quantified under 100× magnification within each field of view on the video monitor using molecular weight markers (Kaleidoscope Molecular Weight Markers, Bio-Rad Lab.; See Blue® from Novex, Inc.) as guides to help align and visualize the apparent molecular weights of the proteins of interest. A minimum of 3 experiments was performed and results were expressed as the mean±SD of cell rolling/field at 100× magnification.

Row | Molecule | Mean Number of Bound Lymphocytes [1] | E-selectin ligand activity (CHO-E cell rolling) [2] | also measured
1 | HL60 CD44: CD44 immunoprecipitated from HL60 cells | 6.5 | did not support any CHO-E cell rolling | –
2 | a-L-fucosidase-treated KG1a CD44: CD44 immunoprecipitated from a-L-fucosidase-treated KG1a lysate | – | abrogated CHO-E cell rolling | –
3 | O=C(O)CN(CCN(CC(=O)O)CC(=O)O)CC(=O)O [EDTA] | – | – | CHO-E cell rolling / E-selectin ligand activity of HL60 cells [3]: completely inhibited; CHO-E cell rolling / E-selectin ligand activity of KG1a cells [4]: completely inhibited
4 | K562 CD44: CD44 isolated from K562 cells | – | did not support any CHO-E cell rolling | –
5 | AML (M1) N-glycosidase-F CD44: N-glycosidase-F-treated CD44 from AML (M1) blasts | 23.4 | – | –
6 | BMEC-1 CD44: CD44 from human BM endothelial cell line BMEC-1 | – | – | E-selectin ligand activity (CHO-E cell rolling) in blot rolling assay [5]: did not possess any E-selectin ligand activity
7 | RPMI 8402 CD44: CD44 isolated from RPMI 8402 cells | – | did not support any CHO-E cell rolling | –
8 | AML (M1) CD44: CD44 (HCELL) immunoprecipitated from blasts of an AML without maturation (M1) | 425.3 | – | fold higher mean number of lymphocytes bound to CD44 than to PSGL-1 ([1]; p<0.001): 3 fold
9 | B1 | 0.5 | – | –
10 | B2 | 4.0 | – | –
11 | B3 | 11.0 | – | –
12 | B4 | 141.5 | – | –
